Measurements from the domain aggregation screens of Martell et al. (2025).

assay: soluble fraction after stress (log2 fold change); higher = more stays soluble; pooled small domains, quantitative proteomics; conditions: stress: 75 degC
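Note: 20 min heating vs room temperature control held 20 min.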

In order of rising “soluble fraction (log2)” value:
1. HMEKIDYLSIGHRLRAYRIASSLKAEDVAESLGISRAAVYRLEKGEIVKIETLDNLARLLNTSLSSLLG  -3.37
2. HMEFQISLAAARVNANMTQEDTARAMKVSKTTIVNWEKGKVIPGIPEVEMMSRLYGIPQDYIFLP  -3.08
3. HMEEIQLILAKNLKSIREKEKLSLEKVSQLTGVSKTMIGQIERGDSSPTLTTIWKIANGLKVSFTSLINNP  -3.06
4. HMEKLLTTRQSQIFELAKRKGYWNIPREISITQLAQLTGSSKSTISVMLHAIESKIVDTFYDEI  -3.05
5. HMEKIKNLTVTEFNLIANKNPSGSYDRITREALLHIIHKLESSYEAHTDLERKLFYKFRKAKFNAL  -2.87
6. HMEIFYSARAWAKLNDLVATRTYLQHLGAIAGRIGRSEGLSPDRIPDGRDGAVNGWPLWVWDRAYAEVS  -2.82
7. HMEEFGRRLKERMIDKNMTEAELAQKTELWSSILTSYLKGERFPGYYTLLRIAEALDVSIDFLLGLRDEPE  -2.72
8. HMEIELHNLALNIKEFRKKNKLSQAELAEKLGVARTTIGYYERAEVEPNIYTLVQLSKLMNRSIDSLLGL  -2.64
9. HMEKMLENIDLKAAVEALPEREKKVILLRYYRGMTQDAAAKVMKVSQVQISRIEKRAIEILREKL  -2.54
10. HMEEKWKENYEKIKLFISINNRYPSVYSEDKEEGLIGSFMSNQKRRKNKLSKEKMALFEALPNWIWE  -2.53
11. HMEIHIGSLIKEKMEERGLSVSDFAHALHYERTNIYKIFKRSSIDVDLLLRISEVLAYDFLREVYL  -2.4
12. HMEDVSTLAVKQRIDDLVKQENPAKPLSDSDIVARLKTDGIYIARRTVAKYRMELNIPSSSARKRAQQFS  -2.31
13. HMEHTPYLTEREADVVRLLVSGLDTAQIAQRLGIKTATVTAHKKHIFLKIGVRNTTQLVAWALIR  -2.3
14. HMEDYYKEDYYTEVLKIPKEYIKGFQYYLIEDAEFVNALNAKNKTMTSFLAKKLASDYIEIIHQEQ  -2.2
15. HMEGLESVVPDLRGKSLKSAAIAAGLSGFALSPEGSGIVYKQSPAPGGRYLKGTLIAVWLRT  -1.95
16. HMEEKTMNLPPSAKLVYKILSYEGNLTQKEIINMTYLPERTVRHALELLLGKRLITRQAYLNDARQSVYG  -1.72
17. HMEKEFLFNGGKVVMNYEADRIQIMHDTKPGQDVITLMKKNGFKWSPFNKAWQRQITANAIYTTKHLINQ  -1.71
18. HMEFEKYKYHYIFDDVLGLRIVWDRGKEHFSYFVNEELAEKSRKSDKDALEVMFYLEHKRWPEEGELENY  -1.67
19. HMEEPLIISIDSNGAVYLEVDSFKDQSIEMSSLREIIEKIILANPDIQVVVRGDSEVKYEKVMDLMSILQS  -1.58
20. HMEKGLQYRRTDRAIMNAFIKLVNQGSFEKLTVQEILDEALVSRNTFYAHYRDIYDLMDALSN  -1.52
21. HMEKNKERIAFLKKRLEMYYEAEEKILQGQSYTIGSRTLTRTSLANVQSKIKELESEISALETRGN  -1.5
22. HMEEKKYEVGDVVSFNYLYKNSFAEGKVSSLIHSGTITRIIDGRPAPYLINRGTGWLSNDLILT  -1.21
23. HMEISAIIGNNLQQLRKEQGLSLDQLALKTGVSKAVLSQLENGKANPTINTIWKIATALHVTYSALLEPP  -1.15
24. HMEGRHFRILYILLNNERVTAPELAEEFGVSVRTIYRDIDTMSAAGIPIYMQGGRKGGIYLLEGY  -1.11
25. HMEKLNERLLYLRKNANLTQQQLADKLHISNKTISQWETGRTLPDIVMLVRLAEIYDMKLDELLNQ  -1.1
26. HMEEVRFPLKKEILLWALKEAQVDEDEVFRKFTNLEKWINGEKHPTFKQIESLANYLKIPFGYMFLEKPPI  -1.02
27. HMEEPEYELLRQAVLALPEKYRLPIHLYYYEEYSVREIAEILQRKESAVQTQLQRGREKIRRSLTEKGVS  -0.874
28. HMEISEILNPPLVTAMAERYPEVDVSYYRDKYILYYESREHKITDHRRNFEKWLLVESQKEEN  -0.861
29. HMEINKLIELIGGYKALSEVLNVSKSAISNYKKRGSLPSYAIPIIVKELKSKGISIDLSEFT  -0.837
30. HMEEDPIIIAQRFLNIFRQLHIFSEEKKESFNKMLLEQPAEIRGALRSLPGGGLLQDYIDDLESKA  -0.698
31. HMEGLEKDDGGYYFEKDNGERARNEWVYVEYEGKGYWYYMTDYGYPLRSAITPDGYKVNSNGHWIDEGN  -0.644
32. HMEEQGLPLVIISDGKVLAQNLTLRSLDRAWLQDQLTQHGHSKPEQVFLLTVDERGAVYYVPKE  -0.556
33. HMEGFKSVYFLTTPSGAEISDRSVGDIISKTPSLVSAQEGTEFEFNLKGYQPSFYMINKRSPDRVFVELIP  -0.545
34. HMEEDDGVDFHERLTELNDEQVYYLINTEPAKVIALALDQLGQKRKINIMNRFNPDMKHSIIMELGKL  -0.543
35. HMEDWTPERFVGAFVSGGPALRDEILLAATKDLSHAQATRLLKLAEARGLVHRSQPGPSERVRFVVARK  -0.518
36. HMEFDYIVKVPDVRNKKIEDAGKILIDLGLKYTTESDYITQDLKVIDQFPLPGTEVSKGSIIDIYLEEDFK  -0.473
37. HMEGMQATVTQITDEGITVRYVMNGQMVTRTLTSDEVAFVNRGQAVSDLAGAYRVGQTVWIY  -0.446
38. HMEKDKGTILKEARIKKGLTQEQLANNINYTRQYISKWENNISLPKDIQTLKKISNLLSIPLKELLPEDYL  -0.442
39. HMEHGQWLSEAQGASLAADWLARRRGVLPLNARRHLSGLSDQIARQIEGGLSREAGLYTAHEMMESLDP  -0.427
40. HMEEQQIQLIQMKMEKDHKYVGKKISELRIKNMLIVLIKRGDEDIIPRAEVKIKEGDILVLSAQSYEG  -0.424
41. HMEEVIEVEGKITAVLPSTMFRAELENGHQVLAHISGKLRKHFIKITVGDIVKMEMSTQDLQKARIV  -0.411
42. HMEITSSNELKKMISNLINSENKNNPISDSNIVEKLKENDFLVARRTVAKYRKLLGIKNVNQRKE  -0.359
43. HMEEKVEVPNLSGKTYQQAKALLESYGLVAAKGGEEESEEPVGKVSRWSSAGKSVKKGTTITVWISGGI  -0.298
44. HMEEILLSVKADGTYWVDQKEVTLDEVGALLDKEPDRLLNIFMDEKVPVRHFINVVDIAKVKREGRFII  -0.27
45. HMEELVGFEEKVRSILTSPLSAKEIKEKTHIEIDTRKLSKMLSELSFIKTEKKNGKKIFRLVS  -0.243
46. HMEKIYLISDAAKQVNVEAHVLRYWEEELDIPAKRNELGHRYYTQEDIETFRKVKELKAQGIQLKGIKNIL  -0.225
47. HMEKGIVSNKTDKGYGFIRSSTGESIFVHINNVGKEAYEQLAKGSRVLFDYEVTDRGKRATKVMLEPSES  -0.196
48. HMEFSYLEEIGHEKGDLIKGLQLIQQKEGYVSDDAVRAVAENFGMSPAEVEGVLTFYAQFKR  -0.162
49. HMEHQLLHMEKTIFEEIADDYPQLNHTKIRNVLAAFLFTNDDVFKRIADLSGGERGRVSLAKLMLSDA  -0.159
50. HMEEMADILKTRIDTLDLSTRTLNALTGANIRTVGGIARKKKEDLLELAGMGEKGIQEIKKVLGGFGITL  -0.157
51. HMEISTENESFSNGLLEHPHYTRPPVWEDLKIPAVLMSGHHGKVAEWRKQQSEALTQERRPDLWEAFG  -0.14
52. HMEFEYTVVVPETRGKTIGEAGRILLDLELKYTSESMNIREDSKVIDQFPSPGTEVSKGSIIDLYLDE  -0.137
53. HMEIYELTDQEQRVLEFIGEGMTNREIAKNMFLAEKTVKNYVSSLLRKLGLERRTQAAAMAVRLSV  -0.119
54. HMEIFYGDDRVYTVSLHGQNNFPFRKKTSDFDYGFEDGTGDEEYLRVLDVTLSRLENEQFDLLFFQAGV  -0.068
55. HMEHDYGLSGREREVLELMVQGLVKKEIADRLALSYHTVDNHLRSIYAKLQVHTRGGAVAKALSEHLVPP  -0.0631
56. HMEIGLIRVDSRLIHGQVITKWLNYSKANVIVVVDDELSKDSFMSEIYKASAPNGIIVEILSIDDFMKNT  -0.0469
57. HMEEFAGYINGQPYYGPTHQHRGVKMVGAEHTQRPHPLVWDSVAKSLDNYDNRFQWVNGNLLQVV  -0.0201
58. HMEDVPYMIKLPSHHYLTKMVDGSTGWSLVQNSNTVVGSSKEELLKQYPEYEDFIVQEPLNV  -0.0186
59. HMEDYTPLQELGLKARYIELLEKGGIFSVEDLVQKSVDDLKDIDGIGEKTAKEIWEIVDSMVDF  0.0226
60. HMEELNFYPNPAYKYINLDYVGLKEIYTVLGKKLLETYDTRINISNLNSGIYLIKFKNQALRFVK  0.0302
61. HMEEVVIPDLAGLTEEEATKVLMAKELKLKVSGSQHSDIEKGLIISQDPPAGEKGAKNSQVAVVTSSG  0.0827
62. HMEFDVELTSFEEAKKLKVIKEVKDVTGLSLGEAKDLVMGAPKAIKTGVSKEEAEAIKTQIEAAGAVVTI  0.101
63. HMEGNAFASTGDPEADILDITAVHPMRRDAVEELLARSGAEWSLVEGMLRDGKITMAPWEGEEFFIRS  0.105
64. HMEETAFEKLSPLQKLRALGKPLTMINMRDGSQIAGSVQRSDDKFLYLDTGDGIAKLPVEEILRRTPM  0.149
65. HMEEEEITIHIIGEVKYPGIVILKTGQRIIDAIDAAGGETEEADLNKINLAQLLSDGDKIYVPSINDN  0.158
66. HMEHNDPEVERTMFQGLEALKLQLFEKAFGHFSLLIKLAPDYAEAWNKRATVLYLMGRFKESESDVMRTLE  0.16
67. HMEKAYVWTDTRTFDVQNYIGKKKSEVKNDQYGFEFLGEGDYVIDQLPRVGEQIEEGQKVKIMLGNQQEI  0.178
68. HMEEDGAPLESREVLLDQAISQGKGTQWTIATETKLEDHIVSGAYSTDGKVTLAVFSPLGDGKYEFSSSVN  0.181
69. HMEETIVFGQQKAINALSSDAGLSSNELDSYLKKRYKRPLYQLSKSEGAELIQGFQDGSLSKASIMDYVS  0.19
70. HMEFDFGAILSGNGGSELYSGYSAEQKAALVEAAKADGMDVEFGADGSTTFKDKDGSEVVQKADGTWTV  0.235
71. HMEGVSNLIVSVTRVKVTVDLSQAKVYLSIFPSEQAAFYLNALQQNRFQLKHDLSQLLKNQLRRIPTLQF  0.296
72. HMEGSRASMDGQVPGKTSYLEWLARQPAQRQDQVLGAERGRLFRAGEIDLADMFTDKGEWISLERLKQLS  0.309
73. HMEDVDTAALEKVIATAKGLNKNDYTATTWTTMQAALTNAEKALEAKKSQTSVDEAAKTLQAAIDGLKKAS  0.336
74. HMEGNWGLWAKVPNRFAALTTDKDSALRRFKSKEDGEAWMASHGLKPERFDVLEIPADYKPA  0.435
75. HMEKIDEDIMDVLKKKAEVSGISLGVLKSIYEKAVKQYKLGHEIGQVKEQYAMQKVNTHLLENK  0.461
76. HMEEKNNIIVSYIEDKISELEKASMYVPNENKEKLIMAFKNRNEDIDVIKTRIDTIFNNSVAAYKENME  0.557
